Molecular target: T1, human CD25 (Homo sapiens, UniProt P01589)
T1 sequence (P01589 22-272): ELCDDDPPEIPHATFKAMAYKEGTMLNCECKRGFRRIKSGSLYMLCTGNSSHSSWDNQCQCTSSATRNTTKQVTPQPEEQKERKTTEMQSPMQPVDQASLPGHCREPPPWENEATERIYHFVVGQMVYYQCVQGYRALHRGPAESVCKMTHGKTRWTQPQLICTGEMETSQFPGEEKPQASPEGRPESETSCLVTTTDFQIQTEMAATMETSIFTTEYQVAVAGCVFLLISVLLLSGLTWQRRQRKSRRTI
Assay: Binding of ADCT-301 to human CD25
Settings: stated in words only

ADCT-301: ADC of human anti-CD25 monoclonal antibody HuMax-TAC conjugated through a cleavable linker to PBD dimer cytotoxin SG3199
affinity to human CD25: picomolar
